{"source": "paper PMC7673798", "about": "(Science Advances, 2020)", "biological_target": "the molecule itself", "experiment": "cryo-EM structure"}
{"protein": "OpuA polypeptide with the nucleotide-binding domain (NBD) fused to a tandem CBS domain, E190Q (natural protein, Lactococcus lactis, UniProt Q9KIF7 1-408, looked up) MPVKIKIEHLTKIFGKRIKTALTMVEKGEPKNEILKKTGATVGVYDTNFEINEGEIFVIMGLSGSGKSTLLRLLNRLIEPTSGKIFIDNQDVATLNKEDLLQVRRKTMSMVFQNFGLFPHRTILENTEYGLEVQNVPKEERRKRAEKALDNANLLDFKDQYPKQLSGGMQQRVGLARALANDPEILLMDQAFSALDPLIRREMQDELLELQAKFQKTIIFVSHDLNEALRIGDRIAIMKDGKIMQIGTGEEILTNPANDYVKTFVEDVDRAKVITAENIMIPALTTNIDVDGPSVALKKMKTEEVSSLMAVDKKRQFRGVVTSEQAIAARKNNQPLKDVMTTDVGTVSKEMLVRDILPIIYDAPTPLAVVDDNGFLKGVLIRGSVLEALADIPDEDEVEEIEKEEENK", "values": [{"measurement": "binding result", "result": "binds"}]}
